# B1: CPEB3 Ribozyme (parent)
# chain: GGGGGCCACAGCAGAAGCGUUCACGUCGCGGCCCCUGUCAGAUUCUGGUGAAUCUGCGAAUUCUGCUGU
# Variants of: B1
# Assay: self-cleavage, relative activity (ratio to wild type); higher = more cleavage; co-transcriptional
row,Variant,self-cleavage
1,G65C U69A,0.828
2,U61C U67C,0.764
3,U61C U67A,0.741
4,G65C C66G,0.65
5,G65C C66U,0.816
6,U62G,0.925
7,U62C,0.927
8,U62A,0.957
9,U62G U64G,0.533
10,U64C G65A,0.565
11,U64C G65C,0.504
12,U62A G68C,0.949
13,U62A G68A,0.924
14,G68A U69G,1.06
15,C66A G68C,0.84
16,C66A G68U,0.799
17,U61A U67A,0.903
18,U61A U67G,0.958
19,U61A U67C,0.896
20,U61G U67C,0.708
21,U61G U67A,0.841
22,U62C C66A,0.5
23,G65U U67A,0.848
24,G65U U67C,0.78

row,Variant,self-cleavage
1,G65U U67G,0.92
2,G65C U67C,0.905
3,G65C U67G,0.905
4,U67C U69G,1.11
5,U67C U69A,1.07
6,C63G U69A,0.864
7,C63G U69C,1.04
8,U67G G68C,1.07
9,U67G G68U,1.1
10,U62A C63G,0.481
11,U62A C63A,0.822
12,U61A U62C,0.829
13,U61A U62G,0.646
14,C66G G68A,0.96
15,U61G U69G,0.999
16,U64G U69A,0.97
17,U64G U69G,1.02
18,U64G U69C,1.05
19,U67G U69C,1.1
20,U67G U69A,1.1
21,U61C G68A,0.924
22,U61C G68C,0.978
23,C63A U69G,0.991
24,C63A U69C,1.07

row,Variant,self-cleavage
1,C63A U69A,0.949
2,U62C C63U,0.795
3,U62C C63G,0.545
4,U64A U67A,0.895
5,U64A U67G,0.922
6,C63A G65A,0.509
7,C63A G65U,0.789
8,U61C C66U,0.557
9,U61C C66A,0.375
10,U61C C66G,0.396
11,U64G G65A,0.578
12,U64G G65C,0.679
13,U62A C66G,0.458
14,U62A C66A,0.499
15,U61G G65U,0.483
16,U61G G65A,0.672
17,U69C,1.06
18,U69G,1.06
19,U69A,1.02
20,U62G G68U,0.683
21,U62G G68A,0.894
22,U62C U64C,0.46
23,U62C U64A,0.507
24,U62C U64G,0.489

row,Variant,self-cleavage
1,U64C U69C,1.07
2,C66G U67A,0.937
3,C66G U67G,0.909
4,U62A U64A,0.452
5,U62A U64C,0.61
6,U64A C66U,0.668
7,U64A C66G,0.417
8,U64A C66A,0.502
9,U62G C66A,0.376
10,U62G C66U,0.579
11,C66A U67G,0.891
12,C66A U67A,0.977
13,C66A U69A,0.969
14,U61C,0.88
15,U61G,0.935
16,C63G C66A,0.248
17,C63G C66U,0.387
18,C63G C66G,0.487
19,U61G U64G,0.397
20,U61G U64A,0.555
21,U61A G65U,0.459
22,U61A G65C,0.542
23,U61A G65A,0.519
24,U64C C66G,0.555

row,Variant,self-cleavage
1,U64C C66U,0.624
2,C63A G68C,0.931
3,C63A G68U,0.878
4,C63A G68A,0.964
5,C63G,0.87
6,C63A,0.919
7,C63U,0.991
8,U62G U67A,0.764
9,U61A C66A,0.386
10,U61A C66G,0.44
11,U62C U67A,0.738
12,U62C U67C,0.687
13,U62C U67G,0.865
14,C63G U67C,0.569
15,C63G U67G,0.752
16,C63A U64C,0.639
17,C63A U64A,0.62
18,C63A U67C,0.651
19,C63A U67A,0.757
20,C63A U67G,0.758
21,U62G U69G,1.01
22,U62G U69C,1.03
23,U62G U69A,0.937
24,C66G U69A,1.02

row,Variant,self-cleavage
1,C66G U69G,0.923
2,C66G U69C,1.01
3,U62A G65A,0.546
4,C63G G68U,0.584
5,C63G G68A,0.849
6,C66U G68C,0.991
7,C63G G65C,0.366
8,C63U U69G,1.04
9,C63U U69A,1.02
10,C63U G68A,0.967
11,U64G C66G,0.442
12,U64G C66U,0.558
13,U64A G68C,0.913
14,U64A G68U,0.922
15,U67C G68A,0.983
16,U67C G68U,1.06
17,G65U C66A,0.669
18,G65U C66U,0.55
19,G65U C66G,0.814
20,U61C U69G,0.974
21,U61C U69C,1.02
22,U67A U69A,0.996
23,U67A U69G,1.04
24,U67A U69C,1.07

row,Variant,self-cleavage
1,U62A U67A,0.924
2,U62A U67C,0.908
3,C63G U64G,0.471
4,G65U G68C,0.852
5,G65A C66G,0.797
6,G65A C66U,0.77
7,U61G C63U,0.57
8,U61G C63A,0.673
9,U61G C63G,0.396
10,U61C C63U,0.425
11,U61C C63A,0.651
12,G65C G68A,0.678
13,U61C U62C,0.479
14,U64C G68A,0.931
15,U64C G68C,0.911
16,U67A G68A,1.07
17,U67A G68C,0.955
18,U67A G68U,1.01
19,U61C G65U,0.292
20,U61C G65C,0.339
21,U64A G65A,0.701
22,U61C U64A,0.322
23,U61C U64C,0.31
